The numbers were not newly measured in paper PMC7106362, which cites them from elsewhere.

The target in this series is m157 (Murine cytomegalovirus) (UniProt A8E1S5). Kind of series: SPR. (In general: In SPR one partner is held on a chip, and binding of the other changes the refractive index at the surface.)

A word on the Kd: it is a measure of binding affinity in units of concentration. With Ly49H (from UniProt Q60682), the dissociation constant (Kd) is 1 µM.
